From publication PMC12738692, “Identification, characterization, and structure-activity relationship of the ASIC3-selective peptide WRPRFa” (Communications Chemistry, 2025)
Numbering of substitutions follows the chain as printed. “And” between values parts separate entries of the source, which are not always exact repeats. Equal values may be shown once. Read-outs that look alike come from different tables or passages of the source. Where a SMILES comes first, the peptide text is derived from it. Where no end group is shown, it is not given here. [ ]: non-standard residue; d: D form. The star is where a group is joined. Arg(Me2a) = CN(C)C(=N)NCCC[C@H](N)C(=O)O; Cha = N[C@@H](CC1CCCCC1)C(=O)O; pNA = O=[N+]([O-])c1ccc(N*)cc1

Experiments:
ASIC3 E78Q = biological target: T1, ASIC3 E78Q (Homo sapiens, UniProt Q9UHC3, E78Q); assay: MPC peptide activity on ASIC3 E78Q mutant (I3s/Ipk, peak current, double mutant cycle); type: cell-based; details: read-out: EC50 (95% CI)
T1 construct: human ASIC3 (NM_004769.4); P2A-mCherry reporter (C, cleaved yes); expressed in transfected cells; host or cells: CHO cells (85050302, Sigma), transient transfection
T1 sequence (Q9UHC3 1-531 E78Q): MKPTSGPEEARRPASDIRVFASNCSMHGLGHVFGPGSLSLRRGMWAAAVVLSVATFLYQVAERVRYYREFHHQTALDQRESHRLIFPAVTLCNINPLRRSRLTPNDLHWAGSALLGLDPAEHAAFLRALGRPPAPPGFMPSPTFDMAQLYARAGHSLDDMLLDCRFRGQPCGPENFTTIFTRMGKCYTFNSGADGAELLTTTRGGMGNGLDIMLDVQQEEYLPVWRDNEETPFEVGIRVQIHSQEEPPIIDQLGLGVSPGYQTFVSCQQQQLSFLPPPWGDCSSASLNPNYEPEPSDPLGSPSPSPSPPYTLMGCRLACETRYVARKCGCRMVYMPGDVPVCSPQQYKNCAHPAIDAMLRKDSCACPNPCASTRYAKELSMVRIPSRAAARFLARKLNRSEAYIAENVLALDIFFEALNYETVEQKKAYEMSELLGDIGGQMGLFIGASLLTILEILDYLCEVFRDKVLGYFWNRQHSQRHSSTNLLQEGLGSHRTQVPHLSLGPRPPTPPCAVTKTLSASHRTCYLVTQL
Source text: We then asked which of the two WRPRFa arginines interacts with the E78/E421 pair. […] To this end, we used a double mutant cycle approach to identify coupling between site 2 or site 4 of WRPRFa with the E78/E421 pair. In this case, the double mutant cycle experiment compared the change in potency caused by single mutations in either WRPRFa or ASIC3 against the change in potency caused by simultaneous mutations in WRPRFa and ASIC3. A coupling coefficient (Ω) can be calculated by dividing the product of the WT/WRPRFa potency and double mutant potency by the product of the two single mutant potencies.
For peptide concentration-response curves, Bottom was set to 0 and Top was constrained to ≤ 1 for peptides that approached plateau phase or where I3s/Ipk reached 1. […] For activation- or desensitization-pH curves, Bottom was set to 0 and Top constrained to 1.

human ASIC3 [1] = biological target: T2, human ASIC3 (Homo sapiens, UniProt Q9UHC3); assay: cell-based
T2 construct: CHO cells stably expressing human ASIC3 (NM_004769.1)
T2 sequence (Q9UHC3 1-531): T1 sequence (Q9UHC3 1-531 E78Q) with Q78E

[2] = biological target: T3, human ASIC3 (acid-sensing ion channel 3) (human) (UniProt Q9UHC3)
T3 sequence: T1 sequence (Q9UHC3 1-531 E78Q) with Q78E

human ASIC3 [3] = biological target: T2, human ASIC3; assay: QPatch II peptide concentration-response (I3s/Ipk); type: cell-based; details: WT ASIC3, QPatch II, read-out: EC50 (95% CI)
Procedure: RFamide peptide activity on ASIC3 was measured on the QPatch II platform (Sophion, Ballerup, Denmark) using either a CHO or HEK stable cell line and analyzed with Sophion Analyzer software (version 5.2). Prior to recording, the cells were washed twice in PBS (Gibco, Paisley, UK) and treated with Detachin (Genlantis, San Diego) for 3 min, then resuspended in their respective growth media without serum for a concentration of 2 × 10^6 cells/ml. A minimum of 5 mL of cells was added to the QStirrer, which was placed on the deck of the QPatch II and allowed to incubate at room temperature for a minimum of 20 min.
The bath solution contained 135 mM NaCl, 5 mM KCl, 4.8 mM CaCl2, 1 mM MgCl2, 10 mM HEPES, 10 mM MES, and 10 mM glucose adjusted to pH 7.4 with NaOH. The intracellular solution contained 65 mM CsF, 65 mM CsCl, 10 mM HEPES, 5 mM EGTA, 1 mM MgCl2, adjusted to pH 7.4 with CsOH. Cells were held at -60 mV and ASIC currents were evoked with 3 s applications of pH 6.3 buffer. Peptides were preincubated for at least 2 min. The extracellular solution was changed by dispensing 5 µL of buffer through the ~1.7 µL recording chamber, with a solution switch time of 100 ms, that exchanges 99% of the solution. Signals were acquired at 1 kHz and low-pass filtered at 300 Hz. Experiments performed on QPatch II are specifically indicated in the text.

human ASIC3 [4] = biological target: T2, human ASIC3; type: cell-based; details: for Geometric mean (I3s/Ipk) / Mean (I3s/Ipk), arithmetic: QPatch II; for Mean (I3s/Ipk), arithmetic: CHO cells
ASIC3 E378Q = biological target: T4, ASIC3 E378Q (Homo sapiens, UniProt Q9UHC3, E378Q); assay: MPC peptide activity on ASIC3 E378Q mutant; type: cell-based; details: read-out: EC50 (95% CI)
T4 construct: human ASIC3 (NM_004769.4); P2A-mCherry reporter (C, cleaved yes); expressed in transfected cells; host or cells: CHO cells (85050302, Sigma), transient transfection
T4 sequence (Q9UHC3 1-531 E378Q): T1 sequence (Q9UHC3 1-531 E78Q) with Q78E, E378Q
Procedure: (§1) We individually mutated the four glutamates to glutamine to remove their charge but maintain the side chain structure (Fig. 4C). We tested each mutant by incubating HEK cells stably expressing ASIC3 or CHO cells transfected with mutant ASIC3 with 30 µM WRPRFa before a pH 6.3 acid stimulus.
(§2) All mutagenesis was performed at Genscript, and sequences were verified by nanopore sequencing by Plasmidsaurus (Eugene, OR). The numbering of ASIC3 amino acids is based on RefSeq NP_004760.1. Plasmids were transfected into CHO cells using Lipofectamine 3000 (Thermo) according to the manufacturer’s protocol. Cells were used for patch-clamp recordings 24–48 h after transfection.
(§3) CHO and HEK cells were tested in the whole-cell configuration on MPC platforms using an Axopatch 200B amplifier (Axon Instruments, San Jose, CA) and a Digidata 1322A or Digidata 1440A digitizer (Axon) using pClamp 9.2 or 10.7 (Molecular Devices, San Jose, CA), respectively. When testing transfected cells, red fluorescence from the cleaved mCherry reporter was used to identify cells expressing ASIC3, ASIC131, or ASIC313. For cells expressing transfected ASIC1a or ASIC2a, the green signal from the cleaved eGFP reporter was used. All electrophysiology data were analyzed with Clampfit 11.1 (Molecular Devices).

ASIC3 E416Q = biological target: T5, ASIC3 E416Q (Homo sapiens, UniProt Q9UHC3, E416Q); assay: MPC peptide activity on ASIC3 E416Q mutant (incl. double mutant cycle); type: cell-based; details: read-out: EC50 (95% CI)
T5 construct: human ASIC3 (NM_004769.4); P2A-mCherry reporter (C, cleaved yes); expressed in transfected cells; host or cells: CHO cells (85050302, Sigma), transient transfection
T5 sequence (Q9UHC3 1-531 E416Q): T1 sequence (Q9UHC3 1-531 E78Q) with Q78E, E416Q
Procedure: as §1, §2, §3

[5] = biological target: T3, human ASIC3 (acid-sensing ion channel 3) (human); remark: listed apart in the source
human ASIC3 E78Q (human) = human ASIC3 E78Q (human) (UniProt Q9UHC3)
[6] = biological target: T3, human ASIC3 (acid-sensing ion channel 3) (human); remark: listed apart in the source

CN(C)C(=N)NCCC[C@H](NC(=O)[C@@H]1CCCN1C(=O)[C@H](CCCNC(=N)N)NC(=O)[C@@H](N)Cc1c[nH]c2ccccc12)C(=O)N[C@@H](Cc1ccccc1)C(N)=O [WRP{ADMA}Fa] (H-WRP[Arg(Me2a)]F-NH2)
EC50 (ASIC3 E78Q): 4.93 µM
EC50 (human ASIC3 [1]): 21.3 µM

WRPR{Cha}a (peptide)
EC50 of I3s/Ipk, QPatch II [2]: 2.33 µM

FRPRF-NH2 [FRPRFa]
EC50 (human ASIC3 [3]): 7.84 µM

N=C(N)NCCC[C@H](NC(=O)[C@@H]1CCCN1C(=O)[C@@H](N)CCCNC(=N)N)C(=O)N[C@@H](Cc1ccccc1)C(N)=O [RPRFa] (H-RPRF-NH2)
EC50 (human ASIC3 [1]): ≥ 21.3 µM

VRPRFa: site 5 Val (VRPRF-NH2)
Geometric mean (I3s/Ipk) (human ASIC3 [4]; 3 µM peptide): 0.0213
Geometric mean (I3s/Ipk) (human ASIC3 [4]; 30 µM peptide, pH 6.3): 0.157

RPRF-COOH: RPRFa without C-terminal amidation (RPRF-OH)
Mean (I3s/Ipk), arithmetic (human ASIC3 [4]; 3 µM peptide): 0.00354
Mean (I3s/Ipk), arithmetic (human ASIC3 [4]; 30 µM peptide): 0.00339 ± 0.00259 and 0.00339

N=C(N)NCCC[C@H](NC(=O)[C@@H]1CCCN1C(=O)[C@H](CCCNC(=N)N)NC(=O)[C@@H](N)Cc1c[nH]c2ccccc12)C(=O)N[C@@H](CC1CCCCC1)C(N)=O [WRPR{Cha}a] (H-WRPR[Cha]-NH2)
EC50 (human ASIC3 [3]): 2.33 µM

WIPRF-NH2 [WIPRFa]
EC50 (ASIC3 E78Q): 1.66 µM
EC50 (human ASIC3 [3]): ≥ 24 µM
EC50 (ASIC3 E378Q): 20.8 µM
EC50 (ASIC3 E416Q): 10.3 µM

WRPRF-COOH: WRPRFa without C-terminal amidation (WRPRF-OH)
Geometric mean (I3s/Ipk) (human ASIC3 [4]; 3 µM peptide): 0.0303
Geometric mean (I3s/Ipk) (human ASIC3 [4]; 30 µM peptide, pH 6.3): 0.249

RPRF-p-nitroanilide: RPRFa with C-terminal amide replaced by para-nitroanilide (RPRF-pNA)
I3s/Ipk, SAR - RPRFa - 30 uM (human ASIC3 [4]): 0.4296 and 0.3944 and 0.359 and 0.3858 and 0.3642
Mean (I3s/Ipk), arithmetic (human ASIC3 [4]; 30 µM peptide): 0.387
Mean (I3s/Ipk), arithmetic (human ASIC3 [4]; 30 µM peptide, listed as RPRF-p-na): 0.387 ± 0.028

WRP{ADMA}Fa (peptide)
EC50 of I3s/Ipk, escalating peptide before pH 6.3, manual patch clamp [5]: 21.3 µM
EC50 of I3s/Ipk, escalating peptide before pH 6.3, manual patch clamp (human ASIC3 E78Q (human)): 4.93 µM

WKPRF-NH2 [WKPRFa]
EC50 (human ASIC3 [3]): 9.08 µM

RPRF-NH2 [RPRFa]
EC50 of I3s/Ipk, RPRFa before a pH 6.3 stimulus, manual patch clamp, HEK cells [6]: > 21.3 µM
